Source: the MegaScale stability set (Tsuboyama et al. 2023)

B1: HEEH_KT_rd6_3632 (parent)
chain: DAEELIELVERALKEGREIILLGVRITSEEAGKWFIEWIRRFL

Variants of: B1
Test: folding stability dG (cDNA display proteolysis); higher = more stable
Settings: PBS, room temperature

Variant | folding stability dG [kcal/mol]
DAEELIELVERALKEGREIILLGVRITSEEAGKWFIRWIRRFL [E37R] | 3.62
DAEELIELVERALKEGREIILLGVRITSEEAGKWFIVWIRRFL [E37V] | 3.79
DAEELIELVERALKEGREIILLGVRITSEEAGKWFIMWIRRFL [E37M] | 3.83
DAEELIELVERALKEGREIILLGVRITSEEAGKWFIYWIRRFL [E37Y] | 3.92
DAEELIELVERALKEGREIILLGVRITSEEAGKWFIAWIRRFL [E37A] | 3.81
DAEELIELVERALKEGREIILLGVRITSEEAGKWFIIWIRRFL [E37I] | 3.87
DAEELIELVERALKEGREIILLGVRITSEEAGKWFIPWIRRFL [E37P] | 2.92
DAEELIELVERALKEGREIILLGVRITSEEAGKWFIHWIRRFL [E37H] | 3.46
DAEELIELVERALKEGREIILLGVRITSEEAGKWFIQWIRRFL [E37Q] | 3.67
DAEELIELVERALKEGREIILLGVRITSEEAGKWFIGWIRRFL [E37G] | 3.42
DAEELIELVERALKEGREIILLGVRITSEEAGKWFIWWIRRFL [E37W] | 3.88
DAEELIELVERALKEGREIILLGVRITSEEAGKWFINWIRRFL [E37N] | 3.62
DAEELIELVERALKEGREIILLGVRITSEEAGKWFIFWIRRFL [E37F] | 3.7
DAEELIELVERALKEGREIILLGVRITSEEAGKWFITWIRRFL [E37T] | 3.47
DAEELIELVERALKEGREIILLGVRITSEEAGKWFIKWIRRFL [E37K] | 3.66
DAEELIELVERALKEGREIILLGVRITSEEAGKWFISWIRRFL [E37S] | 3.52
DAEELIELVERALKEGREIILLGVRITSEEAGKWFIDWIRRFL [E37D] | 3.57
DAEELIELVERALKEGREIILLGVRITSEEAGKWFILWIRRFL [E37L] | 3.93
DAEELIELVERALKEGREIILLGVRITSEEAGKWFIEGIRRFL [W38G] | 2.34
DAEELIELVERALKEGREIILLGVRITSEEAGKWFIENIRRFL [W38N] | 2.8
DAEELIELVERALKEGREIILLGVRITSEEAGKWFIEVIRRFL [W38V] | 2.96
DAEELIELVERALKEGREIILLGVRITSEEAGKWFIEIIRRFL [W38I] | 3.2
DAEELIELVERALKEGREIILLGVRITSEEAGKWFIEHIRRFL [W38H] | 2.82
DAEELIELVERALKEGREIILLGVRITSEEAGKWFIETIRRFL [W38T] | 2.79

Variant | folding stability dG [kcal/mol]
DAEELIELVERALKEGREIILLGVRITSEEAGKWFIEYIRRFL [W38Y] | 3.37
DAEELIELVERALKEGREIILLGVRITSEEAGKWFIERIRRFL [W38R] | 2.89
DAEELIELVERALKEGREIILLGVRITSEEAGKWFIEMIRRFL [W38M] | 3.32
DAEELIELVERALKEGREIILLGVRITSEEAGKWFIEDIRRFL [W38D] | 2
DAEELIELVERALKEGREIILLGVRITSEEAGKWFIELIRRFL [W38L] | 3.42
DAEELIELVERALKEGREIILLGVRITSEEAGKWFIEPIRRFL [W38P] | 2.26
DAEELIELVERALKEGREIILLGVRITSEEAGKWFIEFIRRFL [W38F] | 3.65
DAEELIELVERALKEGREIILLGVRITSEEAGKWFIEEIRRFL [W38E] | 2.62
DAEELIELVERALKEGREIILLGVRITSEEAGKWFIEAIRRFL [W38A] | 2.95
DAEELIELVERALKEGREIILLGVRITSEEAGKWFIESIRRFL [W38S] | 2.71
DAEELIELVERALKEGREIILLGVRITSEEAGKWFIEQIRRFL [W38Q] | 2.96
DAEELIELVERALKEGREIILLGVRITSEEAGKWFIECIRRFL [W38C] | 3.94
DAEELIELVERALKEGREIILLGVRITSEEAGKWFIEKIRRFL [W38K] | 2.86
DAEELIELVERALKEGREIILLGVRITSEEAGKWFIEWSRRFL [I39S] | 2.66
DAEELIELVERALKEGREIILLGVRITSEEAGKWFIEWWRRFL [I39W] | 3.23
DAEELIELVERALKEGREIILLGVRITSEEAGKWFIEWFRRFL [I39F] | 3.46
DAEELIELVERALKEGREIILLGVRITSEEAGKWFIEWLRRFL [I39L] | 4.03
DAEELIELVERALKEGREIILLGVRITSEEAGKWFIEWCRRFL [I39C] | 3.49
DAEELIELVERALKEGREIILLGVRITSEEAGKWFIEWTRRFL [I39T] | 2.46
DAEELIELVERALKEGREIILLGVRITSEEAGKWFIEWARRFL [I39A] | 2.92
DAEELIELVERALKEGREIILLGVRITSEEAGKWFIEWYRRFL [I39Y] | 3.43
DAEELIELVERALKEGREIILLGVRITSEEAGKWFIEWERRFL [I39E] | 2.69
DAEELIELVERALKEGREIILLGVRITSEEAGKWFIEWVRRFL [I39V] | 3.62
DAEELIELVERALKEGREIILLGVRITSEEAGKWFIEWNRRFL [I39N] | 2.64

Variant | folding stability dG [kcal/mol]
DAEELIELVERALKEGREIILLGVRITSEEAGKWFIEWQRRFL [I39Q] | 2.63
DAEELIELVERALKEGREIILLGVRITSEEAGKWFIEWDRRFL [I39D] | 2.51
DAEELIELVERALKEGREIILLGVRITSEEAGKWFIEWRRRFL [I39R] | 2.71
DAEELIELVERALKEGREIILLGVRITSEEAGKWFIEWPRRFL [I39P] | 2.22
DAEELIELVERALKEGREIILLGVRITSEEAGKWFIEWHRRFL [I39H] | 2.73
DAEELIELVERALKEGREIILLGVRITSEEAGKWFIEWGRRFL [I39G] | 2.66
DAEELIELVERALKEGREIILLGVRITSEEAGKWFIEWMRRFL [I39M] | 3.58
DAEELIELVERALKEGREIILLGVRITSEEAGKWFIEWKRRFL [I39K] | 2.56
DAEELIELVERALKEGREIILLGVRITSEEAGKWFIEWIRDFL [R41D] | 3.05
DAEELIELVERALKEGREIILLGVRITSEEAGKWFIEWIRIFL [R41I] | 3.74
DAEELIELVERALKEGREIILLGVRITSEEAGKWFIEWIRMFL [R41M] | 3.93
DAEELIELVERALKEGREIILLGVRITSEEAGKWFIEWIREFL [R41E] | 3.37
DAEELIELVERALKEGREIILLGVRITSEEAGKWFIEWIRLFL [R41L] | 3.81
DAEELIELVERALKEGREIILLGVRITSEEAGKWFIEWIRSFL [R41S] | 3.72
DAEELIELVERALKEGREIILLGVRITSEEAGKWFIEWIRCFL [R41C] | 4.34
DAEELIELVERALKEGREIILLGVRITSEEAGKWFIEWIRWFL [R41W] | 4.14
DAEELIELVERALKEGREIILLGVRITSEEAGKWFIEWIRFFL [R41F] | 3.95
DAEELIELVERALKEGREIILLGVRITSEEAGKWFIEWIRQFL [R41Q] | 3.6
DAEELIELVERALKEGREIILLGVRITSEEAGKWFIEWIRPFL [R41P] | 2.84
DAEELIELVERALKEGREIILLGVRITSEEAGKWFIEWIRKFL [R41K] | 3.76
DAEELIELVERALKEGREIILLGVRITSEEAGKWFIEWIRYFL [R41Y] | 3.81
DAEELIELVERALKEGREIILLGVRITSEEAGKWFIEWIRGFL [R41G] | 3.45
DAEELIELVERALKEGREIILLGVRITSEEAGKWFIEWIRTFL [R41T] | 3.63
DAEELIELVERALKEGREIILLGVRITSEEAGKWFIEWIRHFL [R41H] | 3.64

Variant | folding stability dG [kcal/mol]
DAEELIELVERALKEGREIILLGVRITSEEAGKWFIEWIRAFL [R41A] | 3.62
DAEELIELVERALKEGREIILLGVRITSEEAGKWFIEWIRNFL [R41N] | 3.57
DAEELIELVERALKEGREIILLGVRITSEEAGKWFIEWIRVFL [R41V] | 3.7
DAEELIELVERALKEGREIILLGVRITSEEAGKWFKEWIRRFL [I36K] | 3.26
DAEELIELVERALKEGREIILLGVRITSEEAGKWFPEWIRRFL [I36P] | 2.59
DAEELIELVERALKEGREIILLGVRITSEEAGKWFMEWIRRFL [I36M] | 3.37
DAEELIELVERALKEGREIILLGVRITSEEAGKWFTEWIRRFL [I36T] | 3.09
DAEELIELVERALKEGREIILLGVRITSEEAGKWFWEWIRRFL [I36W] | 3.76
DAEELIELVERALKEGREIILLGVRITSEEAGKWFSEWIRRFL [I36S] | 3.02
DAEELIELVERALKEGREIILLGVRITSEEAGKWFNEWIRRFL [I36N] | 2.93
DAEELIELVERALKEGREIILLGVRITSEEAGKWFYEWIRRFL [I36Y] | 3.46
DAEELIELVERALKEGREIILLGVRITSEEAGKWFVEWIRRFL [I36V] | 3.36
DAEELIELVERALKEGREIILLGVRITSEEAGKWFLEWIRRFL [I36L] | 3.52
DAEELIELVERALKEGREIILLGVRITSEEAGKWFREWIRRFL [I36R] | 3.17
DAEELIELVERALKEGREIILLGVRITSEEAGKWFQEWIRRFL [I36Q] | 3.11
DAEELIELVERALKEGREIILLGVRITSEEAGKWFIEWIRRDL [F42D] | 2.51
DAEELIELVERALKEGREIILLGVRITSEEAGKWFIEWIRRQL [F42Q] | 3.29
DAEELIELVERALKEGREIILLGVRITSEEAGKWFIEWIRRAL [F42A] | 3.21
DAEELIELVERALKEGREIILLGVRITSEEAGKWFIEWIRRHL [F42H] | 3.45
DAEELIELVERALKEGREIILLGVRITSEEAGKWFIEWIRRML [F42M] | 3.76
DAEELIELVERALKEGREIILLGVRITSEEAGKWFIEWIRRGL [F42G] | 3.06
DAEELIELVERALKEGREIILLGVRITSEEAGKWFIEWIRRPL [F42P] | 2.5
DAEELIELVERALKEGREIILLGVRITSEEAGKWFIEWIRRNL [F42N] | 3.19
DAEELIELVERALKEGREIILLGVRITSEEAGKWFIEWIRRKL [F42K] | 3.15

Variant | folding stability dG [kcal/mol]
DAEELIELVERALKEGREIILLGVRITSEEAGKWFIEWIRRLL [F42L] | 3.73
DAEELIELVERALKEGREIILLGVRITSEEAGKWFIEWIRRIL [F42I] | 3.67
DAEELIELVERALKEGREIILLGVRITSEEAGKWFIEWIRREL [F42E] | 2.91
DAEELIELVERALKEGREIILLGVRITSEEAGKWFIEWINRFL [R40N] | 3.14
DAEELIELVERALKEGREIILLGVRITSEEAGKWFIEWIIRFL [R40I] | 3.77
DAEELIELVERALKEGREIILLGVRITSEEAGKWFIEWILRFL [R40L] | 3.83
DAEELIELVERALKEGREIILLGVRITSEEAGKWFIEWIWRFL [R40W] | 3.85
DAEELIELVERALKEGREIILLGVRITSEEAGKWFIEWIGRFL [R40G] | 3.04
DAEELIELVERALKEGREIILLGVRITSEEAGKWFIEWIVRFL [R40V] | 3.48
DAEELIELVERALKEGREIILLGVRITSEEAGKWFIEWIHRFL [R40H] | 3.32
DAEELIELVERALKEGREIILLGVRITSEEAGKWFIEWIFRFL [R40F] | 3.87
DAEELIELVERALKEGREIILLGVRITSEEAGKWFIEWIERFL [R40E] | 2.85
DAEELIELVERALKEGREIILLGVRITSEEAGKWFIEWIKRFL [R40K] | 3.69
DAEELIELVERALKEGREIILLGVRITSEEAGKWFIEWIQRFL [R40Q] | 3.32
DAEELIELVERALKEGREIILLGVRITSEEAGKWFIEWIARFL [R40A] | 3.39
DAEELIELVERALKEGREIILLGVRITSEEAGKWFIEWICRFL [R40C] | 4.03
DAEELIELVERALKEGREIILLGVRITSEEAGKWFIEWIMRFL [R40M] | 3.89
DAEELIELVERALKEGREIILLGVRITSEEAGKWFIEWIPRFL [R40P] | 2.68
DAEELIELVERALKEGREIILLGVRITSEEAGKWFIEWITRFL [R40T] | 3.46
DAEELIELVERALKEGREIILLGVRITSEEAGKWFIEWIYRFL [R40Y] | 3.69
DAEELIELVERALKEGREIILLGVRITSEEAGKWFIEWIDRFL [R40D] | 2.87
DAEELIELVERALKEGREIILLGVRITSEEAGKWFIEWISRFL [R40S] | 3.27
